In the assay the target is human GLP-1 receptor (human) (UniProt P43220). The assay is described as follows: cell-based or functional assay.
Sequence of human GLP-1 receptor (human) (P43220 24-463 limits assumed): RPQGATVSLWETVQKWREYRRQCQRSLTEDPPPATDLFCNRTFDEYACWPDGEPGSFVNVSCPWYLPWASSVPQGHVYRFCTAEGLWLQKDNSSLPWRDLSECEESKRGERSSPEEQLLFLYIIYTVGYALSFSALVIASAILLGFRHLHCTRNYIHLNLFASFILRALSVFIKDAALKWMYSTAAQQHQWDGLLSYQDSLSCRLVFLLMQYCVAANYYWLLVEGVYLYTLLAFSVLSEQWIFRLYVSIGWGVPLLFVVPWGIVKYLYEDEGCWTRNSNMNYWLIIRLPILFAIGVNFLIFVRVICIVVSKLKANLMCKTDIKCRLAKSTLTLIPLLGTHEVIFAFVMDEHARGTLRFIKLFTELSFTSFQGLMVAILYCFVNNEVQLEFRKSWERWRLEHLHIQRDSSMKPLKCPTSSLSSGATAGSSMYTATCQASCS

In turn, Exenatide (exendin-4) (peptide) came in with an EC50 (DiscoveRx GLP1R cAMP Hunter assay) of 0.066 nM.

In the case of “Stably-linked N-[6-azidohexyloxy]-exenatide conjugate of Example 5 (non-releasable control conjugate, R1 = absent, conjugated to DBCO-Lys(DEAC)-[GL4-400] 40 kDa four-branched PEG) (peptide)”, the EC50 (DiscoveRx GLP1R cAMP Hunter assay) was over 100 nM and the fold decrease of biological activity against free exenatide is over 10000 fold.
